In patent publication US20140274906A1 (NONO, published 2014):
No end group written: not given here.

B1: Tat-ND2 310-321 (peptide)
peptide: YGRKKRRQRRRNVKMKWQFEHTK
B2: biotinylated scrambled Src 40-58 control peptide (peptide)
peptide: AGSHAPFPSPARAGVAPDA
modifications: also: biotinylated, position not given here
notes: Scrambled negative control; also called sSrc 40-58; B-sSRC 40-58
B3: Src 40-58 peptide (plated, unlabelled) (peptide)
peptide: KPASADGHRGPSAAFVPAA
B4: GST-ND2.1.4 (AA 289-321) (other)
chain: NLYFYLRLIYSTSITLLPMSNNVKMKWQFEHTK
modifications: also: GST fusion, linker and position in fusion not given here
notes: also called ND2 2.1.4; not shown: glutathione S-transferase (GST) fusion partner
B5: biotinylated ND2 310-321 (peptide)
peptide: NVKMKWQFEHTK
modifications: also: biotinylated, position not given here
B6: Src40-49-Tat (peptide)
peptide: KPASADGHRGYGRKKRRQRRR
B7: biotinylated Src40-49 peptide (peptide)
peptide: KPASADGHRG
modifications: also: biotinylated, position not given here
notes: Labelled probe; also called bio-Src 40-49; Bio-Src40-49
B8: Src40-49 peptide (peptide)
peptide: KPASADGHRG
B9: biotinylated Src 40-58 peptide (peptide)
peptide: KPASADGHRGPSAAFVPAA
modifications: also: biotinylated, position not given here
notes: Probe in dot blots (~15 ug/ml) and ELISA (6 uM); also called biotin-Src 40-58; Biotin-Src 40-58
B10: Tat-Src40-49 (peptide)
peptide: YGRKKRRQRRRKPASADGHRG

Columns and labels:
[1] = target: B9; assay: ELISA (FIG. 6)
[2] = target: B7; assay: competition ELISA, competitor against coated ND2 310-321 peptide (FIG. 7)
[3] = target: T1, GST-ND2 (full length ND2) (human, UniProt P03891 1-347); assay: dot blot of GST-ND2 constructs (FIG. 2B)
T1 construct: GST fusion protein, expressed and purified; printed as full length ND2; not shown: glutathione S-transferase (GST) fusion partner

GST-ND2.1 (AA239-321) [4] = target: T2, GST-ND2.1 (AA239-321) (human, UniProt P03891 239-321); assay: dot blot of GST-ND2 constructs (FIG. 2B)
T2 construct: not shown: glutathione S-transferase (GST) fusion partner

biotinylated ND2 310-321 [5] = target: B5; assay: ELISA, Src peptides plated at ~5 uM (FIG. 5B)
[6] = target: B9; assay: ELISA (FIG. 2C)
[7] = target: B2; assay: dot blot of GST-ND2 constructs (FIG. 2B)
[8] = target: B3; assay: ELISA (FIG. 5B)
Src40-49 peptide = target: B8; assay: dot blot (FIG. 5A)
Src40-49-Tat = target: B6; assay: dot blot (FIG. 5A)
Tat-Src40-49 = target: B10; assay: dot blot (FIG. 5A)
biotinylated ND2 310-321 [9] = target: B5; assay: dot blot, Src fragments spotted, probed with Bio-ND2 310-321 (FIG. 5A)
Tat-ND2 310-321 [10] = target: B1; assay: competition ELISA, competitor against biotinylated Src40-49, Tat-ND2 310-321 pre-coated (FIG. 5E)
Tat-ND2 310-321 [11] = target: B1; assay: ELISA, plate coated with Tat-ND2 310-321 (FIG. 5C)
Tat-ND2 310-321 [12] = target: B1; assay: ELISA (FIG. 6)
ND2 310-321 peptide [13] = target: T3, ND2 310-321 peptide (human); assay: ELISA (FIG. 6); ND2 310-321 is the weaker comparator
T3 peptide: NVKMKWQFEHTK

GST-ND2.1 (AA239-321) [14] = target: T2, GST-ND2.1 (AA239-321); assay: ELISA, GST-ND2.1 coated, biotin-Src 40-58 at 6 uM, SA-HRP (FIG. 2C)
GST-ND2.1.4 (AA 289-321) = target: B4; assay: ELISA, GST-ND2.1.4 coated, biotin-Src 40-58 at 6 uM, SA-HRP (FIG. 2C)
[15] = target: T1, GST-ND2 (full length ND2); assay: dot blot, GST proteins spotted, probed with biotinylated Src 40-58 (FIG. 1C)
ND2 310-321 peptide [16] = target: T3, ND2 310-321 peptide; assay: competition ELISA, competitor against biotinylated Src40-49 (FIG. 5D)

T1 sequence (P03891 whole entry, the tested form may be a part): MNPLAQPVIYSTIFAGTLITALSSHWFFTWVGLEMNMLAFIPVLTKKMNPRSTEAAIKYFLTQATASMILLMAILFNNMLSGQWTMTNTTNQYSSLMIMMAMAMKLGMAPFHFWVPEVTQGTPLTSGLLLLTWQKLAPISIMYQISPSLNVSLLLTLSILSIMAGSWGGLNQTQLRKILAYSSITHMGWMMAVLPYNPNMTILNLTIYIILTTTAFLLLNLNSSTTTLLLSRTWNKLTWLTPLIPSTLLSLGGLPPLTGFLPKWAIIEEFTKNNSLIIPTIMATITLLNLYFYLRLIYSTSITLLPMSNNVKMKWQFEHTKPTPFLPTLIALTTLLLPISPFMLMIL

B1: binds [1]; binds [2].

B2: no binding (tested: ~15 ug/ml biotinylated peptide) [3]; no binding (tested: ~15 ug/ml biotinylated peptide) (GST-ND2.1 (AA239-321) [4]).

B3: binds (biotinylated ND2 310-321 [5]).

B4: binds [6]; no binding (tested: ~15 ug/ml biotinylated peptide) [7].

B5: binds [8]; binds (Src40-49 peptide); binds (Src40-49-Tat). B5: binds (Tat-Src40-49).

B6: binds (biotinylated ND2 310-321 [9]); binds (Tat-ND2 310-321 [10]).

B7: binds (Tat-ND2 310-321 [11]).

B8: binds (biotinylated ND2 310-321 [9]).

GAAKRPSDGH (also: biotinylated, position not given here, also called Bio-sSrc 40-49; sSrc40-49) [biotinylated scrambled Src 40-49 control peptide]: no binding (Tat-ND2 310-321 [11]).

B9: binds (Tat-ND2 310-321 [12]); binds (ND2 310-321 peptide [13]); binds (GST-ND2.1 (AA239-321) [14]). B9: binds (GST-ND2.1.4 (AA 289-321)); binds [15].

B10: binds (ND2 310-321 peptide [16]); binds (biotinylated ND2 310-321 [9]).
